Data: the supplement of paper PMC10126150
± gives the standard deviation of the averaged measurements.

Tested on: ATP
Assay: switch fluorescence ratio, 500 uM ATP over buffer (Cy3 cluster intensity, sum of 5 cycles each) (fold (ratio)); higher = stronger signal-on switching upon ATP binding; sequences stand for … in TCGTCGGCAGCGTCAGATGTGTATAAGAGACAGTTTTTTTTTTTTTTTTTTTTTTTTT…TC
Conditions: aptamer strand: ATP DNA aptamer (quencher-CACCTGGGGGAGTATTGCGGAGGAAGG + anchor), 100 nM annealed; ATP concentration: 500 uM
In short: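 Between each of five buffer/ATP cycles, the flow-cell was stripped with NaOH and re-annealed. Each cycle imaged Cy3-labelled switching-strand clusters, annealed to 100 nM quencher-labelled ATP aptamer on a modified Illumina MiSeq flow-cell, first in selection buffer and then after 15 min with 500 uM ATP at 22 °C. The fluorescence ratio is summed target-cycle over summed buffer-cycle Cy3 intensity per cluster, averaged per switch-domain sequence, with clusters outside 100-1000 RFU excluded.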
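Further: ATP exposure 15 min at 22 °C before imaging.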

Row | Sequence | switch fluorescence ratio
1 | GCGGTGACTG | 0.965 ± 0.018
2 | TAATCAATAT | 1.013 ± 0.0017
3 | TGTTGATTGT | 0.983 ± 0.013
4 | TCAGACTTGC | 1 ± 0.035
5 | CCAGGACTGC | 0.972 ± 0.036
6 | TTGAAGTTAT | 0.9897 ± 0.0021
7 | TCAGGATGTT | 0.987 ± 0.026
8 | TTTAGGCCCC | 0.993 ± 0.044
9 | GGGTTGGATG | 0.996 ± 0.025
10 | TTCTGTTAAA | 1.02 ± 0.027
11 | AGCGACTGTA | 1.15 ± 0.22
12 | TGGGAAGGTT | 1.02 ± 0.041
13 | TACATTTCCA | 1.04 ± 0.04
14 | TCATGTGCGG | 0.9639 ± 0.0022
15 | TTTATTCGCG | 1.03 ± 0.029
16 | TGGGCAAAGT | 0.9863 ± 0.0074
17 | GGTCGGGTGC | 0.971 ± 0.047
18 | AATTGTGCCG | 1.1 ± 0.17
19 | TGGGGACCCT | 0.991 ± 0.014
20 | ACCATTTTTG | 0.985 ± 0.057
21 | AAGTTGTGAA | 1.01 ± 0.017
22 | CGGGGCGGCA | 0.998 ± 0.032
23 | AAGCGGTGGG | 1.05 ± 0.032
24 | TAACAGTTAA | 1.03 ± 0.027
25 | GAACTTTTTT | 0.9935 ± 0.0083

Row | Sequence | switch fluorescence ratio
26 | TTGGTTATCT | 1.01 ± 0.035
27 | AGTGTGTTAG | 0.987 ± 0.015
28 | AGGGTTGGCT | 1.02 ± 0.052
29 | ATAGGGAGGC | 0.967 ± 0.035
30 | TGATTGTACT | 1 ± 0.02
31 | CGGATCGGGT | 1.004 ± 0.0015
32 | GGAATTTGGG | 0.99 ± 0.021
33 | GGTGACTGAG | 1.012 ± 0.009
34 | GCTGGGCATT | 0.99173 ± 0.00022
35 | CACGTATCGG | 1.07 ± 0.029
36 | GGTTAGGTGG | 0.99 ± 0.044
37 | AACGGGGGGA | 0.979 ± 0.033
38 | TTGAGTGAAA | 0.999 ± 0.0017
39 | AGAGGAGTGC | 0.958 ± 0.056
40 | AGGGGGCATC | 1.01 ± 0.07
41 | AAGGGTGTGT | 0.961 ± 0.032
42 | TTTTCGAGGG | 1.01 ± 0.023
43 | CTTGGGTTTT | 0.9548 ± 0.0091
44 | TTGGGGCCGT | 1.04 ± 0.047
45 | TGATTAATTT | 0.984 ± 0.011
46 | TGTTGCCACG | 1 ± 0.0062
47 | TGGTTATTAT | 0.991 ± 0.015
48 | AAATTTGGGC | 0.961 ± 0.02
49 | GCGGGGGTCT | 1.03 ± 0.1
50 | TTTTCGTGGG | 0.986 ± 0.027

Row | Sequence | switch fluorescence ratio
51 | GATTGGGGAA | 1.02 ± 0.013
52 | TACTGTGTTA | 0.979 ± 0.026
53 | ACTCTGTTTT | 1.01 ± 0.012
54 | GGTTTTTTAA | 0.995 ± 0.011
55 | TATAGTGTAA | 1.01 ± 0.048
56 | TGCTGGACTT | 0.987 ± 0.015
57 | GCAAAGTGGG | 0.9909 ± 0.0077
58 | CGCGCAGGGG | 1.69 ± 0.076
59 | ATAGAGGAGG | 1 ± 0.021
60 | GTGTATAGTT | 1.02 ± 0.056
61 | GTTTGGGGGG | 1.04 ± 0.13
62 | GTGGTCGCTG | 0.982 ± 0.019
63 | TATACGATCT | 0.999 ± 0.03
64 | CGATAAAGGT | 1.016 ± 0.0095
65 | GAAGTTGCCT | 1.05 ± 0.028
66 | TCTTAATGTA | 0.985 ± 0.015
67 | GCGTGTTAGT | 1.023 ± 0.0021
68 | AAAATTGCAG | 0.997 ± 0.012
69 | TAGGCCTGGG | 1 ± 0.0033
70 | ATATGTGGGG | 1.01 ± 0.011
71 | TAAGATATTA | 0.998 ± 0.02
72 | TTTAACCCCC | 1.17 ± 0.24
73 | CAACTAAATT | 1.01 ± 0.025
74 | GAGTAAAGTT | 0.982 ± 0.02
75 | TTAAGTGGTG | 1.01 ± 0.017

Row | Sequence | switch fluorescence ratio
76 | GGACTCTAGG | 0.979 ± 0.027
77 | GGAACTGCTG | 1.04 ± 0.029
78 | AGGTGGTCGG | 0.966 ± 0.038
79 | TGTAAGGATT | 1.009 ± 0.0083
80 | TTAGAGGGTC | 0.9952 ± 0.0013
81 | GTGTGTCTGT | 0.991 ± 0.021
82 | AGTCCTCGGC | 1.13 ± 0.071
83 | GGTGCAGACG | 1.03 ± 0.018
84 | TGCGGCTTCG | 0.913 ± 0.061
85 | GACTGCTTGG | 0.9518 ± 0.0063
86 | TAATATAACC | 1.04 ± 0.014
87 | GGGCAATCGT | 1.021 ± 0.0063
88 | CCTGGATCGG | 1.09 ± 0.048
89 | AATTGTATGT | 0.989 ± 0.029
90 | CCGGAATCAT | 1.127 ± 0.00097
91 | CGGAGGTAGG | 1.01 ± 0.043
92 | GCTTCGGGGG | 1.06 ± 0.043
93 | CGACAGATGT | 1.01 ± 0.018
94 | CGTAGTTTAG | 1.05 ± 0.027
95 | TATTTTTGTG | 0.985 ± 0.011
96 | TGTGTTTGGG | 0.987 ± 0.038
97 | TTGGTTAGCC | 0.975 ± 0.078
98 | GGGGGCCCCG | 1 ± 0.013
99 | TTGTGGGAAT | 1.05 ± 0.077
100 | CTGTGTGTTT | 0.9781 ± 0.0072

Row | Sequence | switch fluorescence ratio
101 | CGAATTGTTT | 0.962 ± 0.03
102 | TTCATCCAGC | 1.13 ± 0.07
103 | ACACTAGGGC | 1.04 ± 0.02
104 | TTGGGGGGGA | 1.02 ± 0.13
105 | TTTCTGTATC | 1.04 ± 0.044
106 | TTTACCCTCC | 1.21 ± 0.13
107 | TCAGGGGCCC | 1.07 ± 0.084
108 | TGTTCTATAT | 1.01 ± 0.05
109 | CTCAGGTGTT | 1.73 ± 1
110 | AGGCGATATA | 1 ± 0.024
111 | TGTGCTGGTG | 1.039 ± 0.0068
112 | GGGGCAAGAT | 1.52 ± 0.78
113 | TTGGGGTAGA | 1.05 ± 0.031
114 | AGTGGGGAGC | 0.978 ± 0.031
115 | TGCTGGGTTT | 0.998 ± 0.011
116 | GCTTATTAGT | 1 ± 0.0042
117 | CGGCGGGCAA | 1.81 ± 0.69
118 | GTTCGGGGAC | 1.026 ± 0.0094
119 | CGAACGGTTT | 0.989 ± 0.016
120 | ATCTAAAGGG | 0.999 ± 0.015
121 | CACCCGGGGT | 1.2099 ± 0.00019
122 | TCTCTTCCGT | 1.22 ± 0.056
123 | TAGTTGCGGC | 1.01 ± 0.041
124 | GGTTTCGATG | 1 ± 0.023
125 | CAGTTCGGGG | 0.9729 ± 0.0094

Row | Sequence | switch fluorescence ratio
126 | ACTTTGGTGG | 1 ± 0.029
127 | TTGAGGGGGG | 1.01 ± 0.048
128 | TGTTTGTCTA | 1.01 ± 0.011
129 | GGGAATGTTA | 0.9902 ± 0.007
130 | GCAGGGGGTG | 1.11 ± 0.076
131 | TTAATGCTAT | 0.9836 ± 0.0043
132 | TGAATTTGGG | 0.997 ± 0.064
133 | TTCTGTTATT | 1.11 ± 0.21
134 | AGCGCTATTT | 1.04 ± 0.065
135 | TTGCTCGCTC | 1.16 ± 0.084
136 | TATTAGGGGC | 1.04 ± 0.036
137 | GGGTATGTA | 1.01 ± 0.03
138 | AGCATATATG | 1.02 ± 0.015
139 | TAACAGGTGG | 1.02 ± 0.036
140 | ACACCAGGGG | 4.18 ± 0.57
141 | ACCTGAGGGG | 1.024 ± 0.0035
142 | TCCGGTTGCA | 2.49 ± 0.12
143 | GGTATGCGCT | 0.9934 ± 0.0049
144 | ATTGTTCTGG | 1.004 ± 0.0021
145 | ATTAATGGGT | 1.02 ± 0.027
146 | TATCGGAGAG | 0.9835 ± 0.0016
147 | GAGGCCCATT | 1 ± 0.043
148 | GGTTTAGATA | 0.987 ± 0.031
149 | GCAACCATTA | 1.03 ± 0.018
150 | ACTAGTGCGG | 1.01 ± 0.028

Row | Sequence | switch fluorescence ratio
151 | GAGGAGGATG | 0.987 ± 0.013
152 | GGGTACGTCG | 0.996 ± 0.019
153 | AAACGGCTAA | 1.02 ± 0.039
154 | ATTAAGCGGC | 1.05 ± 0.13
155 | AAAAGCGATC | 1.14 ± 0.038
156 | TTTTGACGGA | 0.994 ± 0.027
157 | TAACGTAGGA | 1.07 ± 0.031
158 | TTGTTTGTGT | 1.02 ± 0.03
159 | TGGGGGTTGG | 1 ± 0.024
160 | AATTCGAGAT | 1.01 ± 0.034
161 | CGAATGGGGG | 1 ± 0.029
162 | ATGGCTAATA | 0.9806 ± 0.0057
163 | GGAGAGATTT | 1.01 ± 0.034
164 | CGGGGTTGAC | 0.9924 ± 0.0098
165 | AAAGGTGCAC | 0.968 ± 0.11
166 | CTTTGGGGGT | 0.979 ± 0.019
167 | ACAAGGGATG | 0.972 ± 0.041
168 | GTTAAAAAGA | 1.08 ± 0.22
169 | GATGTAATGT | 1.0081 ± 0.00064
170 | ATACCATTTC | 1.03 ± 0.049
171 | GCAGATAGGG | 0.998 ± 0.016
172 | TAAGGCATTG | 0.996 ± 0.016
173 | TTTCATGGTA | 0.998 ± 0.0099
174 | TTTCTTATGT | 1.03 ± 0.024
175 | GGGTGAGGTA | 0.97888 ± 0.00072

Row | Sequence | switch fluorescence ratio
176 | CGGGGAAGGA | 1.016 ± 0.006
177 | TCTGCCACCT | 1.023 ± 0.0075
178 | CTATTTAGTC | 0.9496 ± 0.0052
179 | GCTATGAACC | 1.0349 ± 0.0008
180 | TAAATTTTTG | 1.07 ± 0.097
181 | AGGACTTTGG | 1.05 ± 0.056
182 | GATTGGAACG | 0.976 ± 0.013
183 | ACGGTCGGGC | 0.9775 ± 0.00067
184 | TTTAAGTCT | 0.984 ± 0.095
185 | CCCCGGGGGG | 1.09 ± 0.15
186 | GTAGTTTTTT | 1.04 ± 0.032
187 | ATCACTGATT | 1.057 ± 0.0085
188 | TGGTGGGTTT | 1 ± 0.029
189 | TTGAGCTAGA | 0.971 ± 0.025
190 | TAGTTTTTTT | 0.986 ± 0.022
191 | TGGTCGCAGC | 1.01 ± 0.018
192 | TTAGAGGGA | 1 ± 0.047
193 | TTTGTGTAGC | 1 ± 0.038
194 | GGGCGCCCCC | 1.08 ± 0.14
195 | CTTTTAAGGT | 0.984 ± 0.03
196 | ATTCTGGTGG | 1.01 ± 0.046
197 | TAGGGAGTCA | 0.971 ± 0.019
198 | CGGTTGGGCC | 0.993 ± 0.014
199 | AGGAAGAGAG | 1.016 ± 0.0083
200 | GAGGGCGCTG | 0.973 ± 0.011
